{
  "source": "paper PMC3037027",
  "origin": "cited, not measured here",
  "molecular_target": "U2AF65 UHM (Homo sapiens) (UniProt P26368)",
  "sequence (P26368 372-475, one chain of several)": "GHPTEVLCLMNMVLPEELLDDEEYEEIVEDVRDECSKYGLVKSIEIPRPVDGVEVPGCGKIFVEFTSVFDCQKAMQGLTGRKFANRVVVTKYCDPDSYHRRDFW",
  "assay": "ITC",
  "data": [
    {"substance": "SF1 1-255 (from UniProt Q15637)", "values": [
      {"measurement": "Kd", "result": 12, "unit": "nM"}
    ]}
  ]
}
